The values that follow come from PMC5729408, “Site-specific bioalkylation of rapamycin by the RapM 16-O-methyltransferase” (Chemical Science, 2015).

One data set has as its target T1, hMAT2A (Homo sapiens, UniProt P31153, I322V).
T1 construct: gene MAT2A; pNIC28-Bsa4-hMAT2A, His-tagged, E. coli Rosetta 2, Ni-NTA; rows are the I322V mutant
In words: HILIC HPLC of AdoMet analogue formation. In kind it is biochemical. The settings on record: ATP 1.5 mM, substrate 1.5 mM, MgCl2 3 mM, pH 7.4, 30 °C.

Substrate in data set [1]: C/C1=C\[C@@H](C)C(=O)C[C@@H]([C@H](C)C[C@@H]2CC[C@@H](O)[C@H](O)C2)OC(=O)[C@@H]2CCCCN2C(=O)C(=O)[C@]2(O)O[C@@H](CC[C@H]2C)C[C@H](O)/C(C)=C/C=C/C=C/[C@@H](C)C[C@@H](C)C(=O)[C@H](O)[C@@H]1O
In words: RP-HPLC methyltransferase assay. In kind it is biochemical, Streptomyces hygroscopicus. Conditions: AdoMet 500 µM; BC231 2.5–250 µM.

T1 sequence (P31153 whole entry I322V): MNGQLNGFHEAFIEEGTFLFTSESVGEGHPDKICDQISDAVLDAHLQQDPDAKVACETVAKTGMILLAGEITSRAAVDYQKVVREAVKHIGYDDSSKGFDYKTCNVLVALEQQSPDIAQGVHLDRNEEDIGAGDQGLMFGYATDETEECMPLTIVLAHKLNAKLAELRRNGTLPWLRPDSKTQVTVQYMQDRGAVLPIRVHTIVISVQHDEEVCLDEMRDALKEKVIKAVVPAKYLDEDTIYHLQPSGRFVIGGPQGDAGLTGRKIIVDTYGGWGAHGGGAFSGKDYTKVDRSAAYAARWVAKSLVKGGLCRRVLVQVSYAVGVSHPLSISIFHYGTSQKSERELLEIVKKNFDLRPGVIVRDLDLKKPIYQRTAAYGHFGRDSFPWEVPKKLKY

As to `C=CCSCC[C@H](N)C(=O)O` [S-allyl-L-homocysteine], the “HILIC HPLC of AdoMet analogue formation” value at hMAT2A is “evaluated with L-ethionine and S-allyl-L-homocysteine (Sahc) as substrates”.

B1: RapM (Streptomyces hygroscopicus) (protein)
chain: MIQPDVVTAFTAVRDINLDEPGTPQAETKAATFKSASSSIYDLAASMSAKGQLWNWGVHDSEFVAEIEARLPGFTEYGTDGFSEQLYYLALRDLPKGLESCDGRTVLEVGCGMGEGLNFLSRLVPTARMTGLDLAPKAIASATATLSRGDTLRFVQGDAEELPFEDSSVDVLVNIESSHTYPNLGRFLREAARALRRGGALSHIDVFTRQRLEAMRRITTEIPELKWVSDHDISDQVRAAVRRRMPPDSHLRSTLNKQRMNRLARTLALHSQITVFGGTFADYQPPASVKMLSRLGLVPPMDSLPMETYRHQIAVRV
notes: wild-type rapM in pET28a(+) (NdeI/XhoI), N-terminal His6 tag, E. coli BL21 (DE3), Ni-NTA
For the molecule B1, in data set [1], the Km turned out to be 48.9 ± 7.1 µM and the kcat is recorded as 1.47 ± 0.072 min^–1.
